The subject of one data set is N. The experiment in a line: purified protein. The following applies: 2 mM ATP, 150 μM XMP, 20 mM MgCl2, pH 8.5, 25 °C.
Data set [1] relates to O=c1[nH]c(=O)c2ncn([C@@H]3O[C@H](COP(=O)(O)O)[C@@H](O)[C@H]3O)c2[nH]1. Briefly: purified protein. The format is biochemical, Plasmodium falciparum. To be noted: 2 mM ATP, 5 mM Gln, 20 mM MgCl2, pH 8.5, 25 °C, Gln-dependent.
Another data set deals with T1, PfATPPase (Plasmodium falciparum, UniProt Q8IJR9).
T1 construct: gene GMPS
T1 sequence (Q8IJR9 237-555): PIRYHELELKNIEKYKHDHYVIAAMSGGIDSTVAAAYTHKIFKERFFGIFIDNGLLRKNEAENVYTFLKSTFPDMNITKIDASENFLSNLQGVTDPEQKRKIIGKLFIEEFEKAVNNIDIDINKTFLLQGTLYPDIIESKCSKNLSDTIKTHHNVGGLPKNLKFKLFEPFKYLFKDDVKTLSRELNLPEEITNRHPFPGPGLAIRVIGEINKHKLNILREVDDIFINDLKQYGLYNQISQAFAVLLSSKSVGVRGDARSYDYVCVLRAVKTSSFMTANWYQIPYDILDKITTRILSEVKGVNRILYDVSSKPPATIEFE
The experiment in a line: ammonia-dependent GMP formation, absorbance decrease at […] nm. To be noted: NH4Cl-dependent, 20 mM MgCl2, pH 8.5, 25 °C.

Data set [2] deals with the molecule itself. Briefly: SAXS; in solution, 1.1-11 mg/ml in 20 mM Tris pH 7.4, 50 mM NaCl; data at 11 mg/ml analysed; ab initio envelope superimposed on the dimer crystal structure.
The data set “SAXS” concerns the molecule itself. Briefly: SAXS.
Data set [3] deals with the molecule itself. Briefly: SEC; analytical gel filtration, Superdex 200 HR 10/30, 50 mM Tris-HCl pH 7.4, 100 mM KCl; 100 μl of 20 μM protein, each injected individually. In general terms: Size exclusion chromatography separates by hydrodynamic size, large species first.
Substrate in data set [4]: N
Briefly: purified protein. To be noted: 20 mM MgCl2, pH 8.5, 25 °C.

Substrate in data set [5]: O=c1[nH]c(=O)c2ncn([C@@H]3O[C@H](COP(=O)(O)O)[C@@H](O)[C@H]3O)c2[nH]1
The experiment in a line: purified protein. To be noted: NH4Cl-dependent, 20 mM MgCl2, pH 8.5, 25 °C.

As usually defined, the Km is the substrate concentration at which the rate is half of its maximum. Broadly, the kcat is the number of substrate molecules converted per active site and unit of time at saturation. The kcat/Km is the turnover number divided by the Michaelis constant. A word on the stoichiometry N: it is the number of molecules, sites or subunits per partner or assembly.

Regarding PfGMPS (Plasmodium falciparum 3D7), in the data set on N, the Km is 19000 ± 1000 µM, the kcat is 0.917 s⁻¹ and the kcat/Km was found to be 48.3 M⁻¹ s⁻¹. Also, in data set [1], the Km is 10 ± 2 µM, the kcat was 0.733 ± 0.0167 s⁻¹ and the kcat/Km is 73300 M⁻¹ s⁻¹.
Take `Nc1ncnc2c1ncn2[C@@H]1O[C@H](COP(=O)(O)OP(=O)(O)OP(=O)(O)O)[C@@H](O)[C@H]1O` [ATP]: the Km at PfATPPase came to 56 ± 16 µM.

B1: Plasmodium falciparum GMP synthetase (PfGMPS), wild type (enzyme, UniProt Q8IJR9 1-555, looked up)
chain: MEGEEYDKILVLNFGSQYFHLIVKRLNNIKIFSETKDYGVELKDIKDMNIKGVILSGGPYSVTEAGSPHLKKEVFEYFLEKKIPIFGICYGMQEIAVQMNGEVKKSKTSEYGCTDVNILRNDNINNITYCRNFGDSSSAMDLYSNYKLMNETCCLFENIKSDITTVWMNHNDEVTKIPENFYLVSSSENCLICSIYNKEYNIYGVQYHPEVYESLDGELMFYNFAYNICKCKKQFDPIRYHELELKNIEKYKHDHYVIAAMSGGIDSTVAAAYTHKIFKERFFGIFIDNGLLRKNEAENVYTFLKSTFPDMNITKIDASENFLSNLQGVTDPEQKRKIIGKLFIEEFEKAVNNIDIDINKTFLLQGTLYPDIIESKCSKNLSDTIKTHHNVGGLPKNLKFKLFEPFKYLFKDDVKTLSRELNLPEEITNRHPFPGPGLAIRVIGEINKHKLNILREVDDIFINDLKQYGLYNQISQAFAVLLSSKSVGVRGDARSYDYVCVLRAVKTSSFMTANWYQIPYDILDKITTRILSEVKGVNRILYDVSSKPPATIEFE
notes: GMP synthetase of Plasmodium falciparum, EC 6.3.5.2, full-length enzyme of 555 residues: GATase domain 1-236 and ATPPase domain 237-555; also called guanosine 5'-monophosphate synthetase; ligand-free PfGMPS; source: E. coli AT2465 (pQE30PfGMPS), purified (HisTrap, Superdex 200 size exclusion)
With B1, in data set [2], the “stoichiometry N” value turned out to be 2.

B2: PfGMPS_C89A (glutamine-bound inactive mutant of P. falciparum GMP synthetase) (enzyme)
chain: MEGEEYDKILVLNFGSQYFHLIVKRLNNIKIFSETKDYGVELKDIKDMNIKGVILSGGPYSVTEAGSPHLKKEVFEYFLEKKIPIFGIAYGMQEIAVQMNGEVKKSKTSEYGCTDVNILRNDNINNITYCRNFGDSSSAMDLYSNYKLMNETCCLFENIKSDITTVWMNHNDEVTKIPENFYLVSSSENCLICSIYNKEYNIYGVQYHPEVYESLDGELMFYNFAYNICKCKKQFDPIRYHELELKNIEKYKHDHYVIAAMSGGIDSTVAAAYTHKIFKERFFGIFIDNGLLRKNEAENVYTFLKSTFPDMNITKIDASENFLSNLQGVTDPEQKRKIIGKLFIEEFEKAVNNIDIDINKTFLLQGTLYPDIIESKCSKNLSDTIKTHHNVGGLPKNLKFKLFEPFKYLFKDDVKTLSRELNLPEEITNRHPFPGPGLAIRVIGEINKHKLNILREVDDIFINDLKQYGLYNQISQAFAVLLSSKSVGVRGDARSYDYVCVLRAVKTSSFMTANWYQIPYDILDKITTRILSEVKGVNRILYDVSSKPPATIEFE
B2: the “stoichiometry N” value in “SAXS” was 2.

B3: PfATPPase (isolated ATP pyrophosphatase domain of PfGMPS) (domain or fragment, Plasmodium falciparum, UniProt Q8IJR9 237-555, looked up)
chain: PIRYHELELKNIEKYKHDHYVIAAMSGGIDSTVAAAYTHKIFKERFFGIFIDNGLLRKNEAENVYTFLKSTFPDMNITKIDASENFLSNLQGVTDPEQKRKIIGKLFIEEFEKAVNNIDIDINKTFLLQGTLYPDIIESKCSKNLSDTIKTHHNVGGLPKNLKFKLFEPFKYLFKDDVKTLSRELNLPEEITNRHPFPGPGLAIRVIGEINKHKLNILREVDDIFINDLKQYGLYNQISQAFAVLLSSKSVGVRGDARSYDYVCVLRAVKTSSFMTANWYQIPYDILDKITTRILSEVKGVNRILYDVSSKPPATIEFE
notes: ATPPase domain of Plasmodium falciparum GMP synthetase, residues 237-555; Cloned into pET-21b(+); also called ATPPase domain; source: E. coli BL21(DE3) (pETPfATPPase), purified (60% ammonium sulfate precipitation, CM-Sepharose cation exchange)
Consider B3, for which the “stoichiometry N” value in data set [3] worked out at 2. The figures for the Km in “purified protein [4]” and in the data set “purified protein [5]” were 7000 ± 300 µM and 11 ± 4 µM, respectively. The kcat in the data set “purified protein [4]” was determined as 0.155 ± 0.0017 s⁻¹.

For the origin of these results see publication PMC4673825, “Active site coupling in Plasmodium falciparum GMP synthetase is triggered by domain rotation” (Nature Communications, 2015).
